# Measured values reported in article PMC7466704, “A Peptide-Based Nanocarrier for an Enhanced Delivery and Targeting of Flurbiprofen into the Brain for the Treatment of Alzheimer’s Disease: An In Vitro Study” (Nanomaterials, 2020).
# Where “and” joins values, the source holds several entries; their conditions need not be identical. Equal entries are not always repeated. Where a SMILES comes first, the peptide text is derived from it. The star is where a group is joined. X1 = CC(C(=O)*)c1ccc(-c2ccccc2)c(F)c1
# Legend:
# [1] = tested on: bEnd.3 cells; assay: LDH release assay (loss of cell membrane integrity); format: cell-based, mouse; conditions: 25 to 400 µM, 24 and 48 h, absorbance 492 nm, n = 6
# Experimental: Immortalised brain endothelial cells, bEnd.3 (passages 15–20), were cultured, according to the (manufacture ATCC) product sheet, in a Dulbecco’s modified eagle’s medium (DMEM) high glucose medium with L-pyruvate, containing 10% (v/v) foetal bovine serum (FBS) and 1% (v/v) of 500 U/mL Penicillin/Streptomycin (Gibco, Gaithersburg, MD, USA). Cells were seeded at a density of 5 × 10^4 cells per cm^2 in 24-well plates, which were incubated at 37 °C and 5% CO2 with replacement of the culture media every 3 days.
# (§1) The lactate dehydrogenase (LDH) assay provides an indication of loss of cell membrane integrity and was measured using a Promega CytoTox96® nonradioactive cytotoxicity assay kit (Southampton, UK) after 24 and 48 h of treatment. Absorption was read spectrophotometrically at 492 nm and converted to a percentage of the total LDH released from the positive control (untreated cells with complete lysis).
# [2] = tested on: HUVEC; assay: as above; format: cell-based, human; conditions: 25 to 400 µM, 24 and 48 h, absorbance 492 nm, n = 6
# Experimental: The synthesised AEP-K-FP was also tested on human umbilical vein endothelial cells (HUVECs) (ATCC- Manassas, VA, USA) (passages 35 to 39). HUVECs were routinely cultured in an endothelial basal medium (F-12K) containing 0.05 mg/mL of endothelial cell growth supplement (ECGS), 0.1 mg/mL of heparin (Gibco Gaithersburg, MD, USA) and adjusted to a final concentration of 10% v/v of FBS (according to the manufacturer’s recommendations).
# as §1
# [3] = tested on: brain endothelial cells (bEnd.3); assay: Hoechst 33342/propidium iodide (HPI) staining, cell death assessment; format: cell-based, mouse; conditions: 100, 300 and 400 µM, 24 h, n = 6
# Description: For cell death assessment, Hoechst 33342 and propidium iodide (PI) salt (HPI) was used (Sigma-Aldrich, Gillingham, UK). These intracellular dyes stain cells in which the Hoechst 33342 binds to DNA, so it is staining the nuclei, whereas PI stains […], resulting in emission of light observed under a fluorescent microscopy. Live cells appear blue with intact membranes on microscopic examination, and those at early and late apoptotic phases appear bright blue with shrinkage. On the other hand, necrotic or damaged cells appear red with ruptured membranes.
# HPI dye was prepared by adding 900 µL of DMEM to a mixture solution of 50 µL of 1mg/mL Hoechst 33342 and 50 µL of 2 μg/mL PI in a glass vial. After 24 h of treatment and incubation, which were performed as previously discussed, an epi fluorescent microscopy (Olympus microscope equipped with a Nikon D1X camera, UK) was used to identify and count the cells with distinct morphologies. Cell counts for healthy (living), apoptotic, or necrotic cells were obtained from the same treatment in duplicate wells and from three different fields for each well. Counting of the cells was measured according to their appearance then averaged and expressed as a percent of the total cell number.
# [4] = tested on: bEnd.3 monolayer; assay: Penetration across in vitro BBB model (bEnd.3 monolayer on transwell); format: in vitro ADME, mouse; conditions: for Increase of percentage permeated relative to free FP: 200 µM; for Percentage permeated across in vitro BBB model (% of applied concentration): bEnd.3 monolayer on 12-transwell inserts, 200 µM in FBS-free, phenol-free culture media, HPLC C18, UV 248 nm
# Experimental: The lyophilised powders of both AEP-K-FP and the free drug (FP) were dissolved in the FBS-free, phenol-free culture media in a concentration of 200 µM. Quantitative analysis of penetration for the free-drug and drug-attached delivery system was undertaken using HPLC (Agilent technology, Stockport, UK). The analysis was carried out using a hydrophobic C18 column (150 × 4.6 mm) at 25 °C and 20 μL of injection volume. The flow rate used was 0.6 mL/min, while the UV-detection wavelength was 248 nm, which is the λmax of FP [9]. The HPLC mobile phase solvents consisted of water/acetonitrile in which the gradient of eluent was run from 75:25 to 25:75 water: acetonitrile over 20 min. The standard curve for each molecule was obtained to calculate the percentage of the amount that transported across the in vitro BBB model.
# To establish an in vitro BBB model, bEnd.3 cells were seeded on microporous membrane of 12-transwell inserts with complete culture media in a routine manner. Trans-endothelial electrical resistance (TEER) between apical and basolateral chambers was measured using an Evom voltometer (Sarasota, FL, USA) to determine the day of maximum values indicating tight junction formation, as previously described.
# [5] = tested on: γ-secretase in C6 glial cells; assay: Quantification of γ-secretase enzyme by sandwich ELISA in treated cells; format: cell-based; conditions: 200 µM in F-12K, 4 h, cell lysate supernatant, 6 readings, untreated control 28.43 ± 8.32
# Experimental: C6 glial cells (ATCC-) (passages less than 20) were seeded using the complete growth medium, which was made according to the ATCC product sheet by addition of FBS to a final concentration of 2.5% v/v and horse serum (Gibco Gaithersburg, MD, USA) to a final concentration of 15% v/v to F-12K medium. Experiments were performed when cells reached confluence.
# The investigation is based on sandwich enzyme-linked immunosorbent assay (ELISA) technology using a γ-secretase enzyme kit (Abbexa Ltd., Cambridge, UK). After confluence, C6 glial cells were treated with 200 µM FP or AEP-K-FP / F-12K solution. Wells containing untreated C6 cells were also included as a control. After 4 h of incubation, cells were washed and lysed to be centrifuged, and the supernatant was collected for assaying the γ-secretase activity immediately, according to kit instructions. Data were expressed as pg/mL, following kit instructions.
# [6] = Hydrolysis and drug release in acidic lysosome-mimicking buffer; format: physicochemical; conditions: phthalate buffer pH 4.5; 200 µM; static, 24 h, 37 °C; HPLC
# Experimental: The AEP-K-FP was analysed for the hydrolysis of the amide linkage that coupled the drug molecules to the peptide carrier as well as its amino acids residues. This hydrolysis of the complex was evaluated in an acidic solution mimicking the lysosomal pH conditions that are likely to be found in an inflamed tissue such as that of AD-affected brain tissue. The acidic buffer solution was prepared using a phthalate solution, according to manufacturer’s instructions (Thomas Scientific, Swedesboro, NJ, USA), to obtain a final pH of 4.5. The AEP-K-FP was dissolved in this buffer solution at a concentration of 200 µM and incubated at static conditions for 24 h, 37 °C. Samples were collected and analysed by HPLC.
# [7] = set-up: method as in PMID 7736686; conditions: cited from earlier work
# [8] = tested on: γ-secretase; set-up: method as in PMID 20009055, PMID 18450517; conditions: at target brain tissue; cited from earlier work
smiles,measurement,setting,value
CC(C)C[C@H](NC(=O)[C@H](CC(C)C)NC(=O)[C@H](CCCNC(=N)N)NC(=O)[C@H](CCCCN)NC(=O)[C@H](CCCNC(=N)N)NC(=O)[C@H](CC(C)C)NC(=O)[C@H](CCCCN)NC(=O)[C@H](CCCNC(=N)N)NC(=O)[C@H](CC(C)C)NC(=O)[C@H](CCCCNC(=O)C(C)c1ccc(-c2ccccc2)c(F)c1)NC(=O)C(C)c1ccc(-c2ccccc2)c(F)c1)C(=O)N[C@@H](CCCNC(=N)N)C(=O)O (stereo partly drawn) [AEP-K-FP] (X1-K(X1)LRKLRKRLLR-OH; N-terminus and C-terminus assumed),"LDH release, % of positive control (complete lysis)",[1],less than 50%
same,"LDH release, % of positive control (complete lysis)",[2],less than 50%
same,"Apoptotic cells, % of total cell number (HPI staining)",[3],≤ 4.7%
same,"Healthy cells, % of total cell number (HPI staining)",[3],≥ 91%
same,"Necrotic cells, % of total cell number (HPI staining)",[3],≤ 3.4%
same,Increase of percentage permeated relative to free FP,"[4]; bEnd.3 BBB model, 1 h",more than 6 times
same,Increase of percentage permeated relative to free FP,"[4]; bEnd.3 BBB model, 4 h",4 times
same,Percentage permeated across in vitro BBB model (% of applied concentration),[4]; 1 h,16.3%
same,Percentage permeated across in vitro BBB model (% of applied concentration),[4]; 4 h,35.9%
same,"γ-secretase enzyme amount, Mean ± SD",[5],14.6 pg/mL and 14.60 ± 3.51 pg/mL
same,Percentage of hydrolysed FP out of the total amount of AEP-K-FP,[6],69.2%
"CC(C(=O)O)c1ccc(-c2ccccc2)c(F)c1 (stereo not drawn) [FP, Flurbiprofen]","Penetration, % of initial payload concentration","[4]; bEnd.3 BBB model, time not stated at this place (discussion)",less than 9%
same,Percentage permeated across in vitro BBB model (% of applied concentration),[4]; 1 h,≤ 2.7%
same,Percentage permeated across in vitro BBB model (% of applied concentration),[4]; 4 h,≤ 8.5%
same,"γ-secretase enzyme amount, Mean ± SD",[5],8.2 pg/mL and 8.20 ± 3.80 pg/mL
same,Biological half-life,[7],4 h
same,Time to full excretion from the body,[7],≤ 24 h
same,Required therapeutic concentration for significant pharmacological effect on γ-secretase activity,[8],150−250 μM
